B1: Serine-threonine kinase receptor-associated protein (Homo sapiens), Q9Y3F4 (parent)
chain: MAMRQTPLTCSGHTRPVVDLAFSGITPYGYFLISACKDGKPMLRQGDTGDWIGTFLGHKGAVWGATLNKDATKAATAAADFTAKVWDAVSGDELMTLAHKHIVKTVDFTQDSNYLLTGGQDKLLRIYDLNKPEAEPKEISGHTSGIKKALWCSEDKQILSADDKTVRLWDHATMTEVKSLNFNMSVSSMEYIPEGEILVITYGRSIAFHSAVSLDPIKSFEAPATINSASLHPEKEFLVAGGEDFKLYKYDYNSGEELESYKGHFGPIHCVRFSPDGELYASGSEDGTLRLWQTVVGKTYGLWKCVLPEEDSGELAKPKIGFPETTEEELEEIASENSDCIFPSAPDVKA

Assays:
Details in all cases: with ndka_human NME1, P15531
ndka_human NME1, P15531, sequence (P15531 whole entry): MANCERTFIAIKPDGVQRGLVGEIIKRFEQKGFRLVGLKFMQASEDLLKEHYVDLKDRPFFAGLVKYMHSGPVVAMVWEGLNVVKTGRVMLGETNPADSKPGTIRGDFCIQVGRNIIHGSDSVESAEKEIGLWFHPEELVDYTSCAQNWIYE

[1] = variants of: B1
[2] = variants of: B1; remark: listed apart in the source
[3] = variants of: B1; remark: listed apart in the source

MAMRQTPLTCSGHTRPVVDLAFSGITPYGYFLISACKDGKPMLRQGDTGDWIGTFLGHKGAVWGATLNKDATKAATAAADFTAKVWDAVSGDELMTLAHKHIVKTVDFTQDSNYLLTGGQDKLLRIYDLNKPEAEPKEISGHTSGIKKALWSSEDKQILSADDKTVRLWDHATMTEVKSLNFNMSVSSMEYIPEGEILVITYGRSIAFHSAVSLDPIKSFEAPATINSASLHPEKEFLVAGGEDFKLYKYDYNSGEELESYKGHFGPIHCVRFSPDGELYASGSEDGTLRLWQTVVGKTYGLWKCVLPEEDSGELAKPKIGFPETTEEELEEIASENSDCIFPSAPDVKA [C152S]
effect of a mutation on the interaction [1]: decreasing interaction | effect of a mutation on the interaction [2]: disrupting interaction

MAMRQTPLTCSGHTRPVVDLAFSGITPYGYFLISACKDGKPMLRQGDTGDWIGTFLGHKGAVWGATLNKDATKAATAAADFTAKVWDAVSGDELMTLAHKHIVKTVDFTQDSNYLLTGGQDKLLRIYDLNKPEAEPKEISGHTSGIKKALWSSEDKQILSADDKTVRLWDHATMTEVKSLNFNMSVSSMEYIPEGEILVITYGRSIAFHSAVSLDPIKSFEAPATINSASLHPEKEFLVAGGEDFKLYKYDYNSGEELESYKGHFGPIHSVRFSPDGELYASGSEDGTLRLWQTVVGKTYGLWKCVLPEEDSGELAKPKIGFPETTEEELEEIASENSDCIFPSAPDVKA [C152S;C270S]
effect of a mutation on the interaction [1]: disrupting interaction | effect of a mutation on the interaction [3]: decreasing interaction

MAMRQTPLTCSGHTRPVVDLAFSGITPYGYFLISACKDGKPMLRQGDTGDWIGTFLGHKGAVWGATLNKDATKAATAAADFTAKVWDAVSGDELMTLAHKHIVKTVDFTQDSNYLLTGGQDKLLRIYDLNKPEAEPKEISGHTSGIKKALWCSEDKQILSADDKTVRLWDHATMTEVKSLNFNMSVSSMEYIPEGEILVITYGRSIAFHSAVSLDPIKSFEAPATINSASLHPEKEFLVAGGEDFKLYKYDYNSGEELESYKGHFGPIHSVRFSPDGELYASGSEDGTLRLWQTVVGKTYGLWKCVLPEEDSGELAKPKIGFPETTEEELEEIASENSDCIFPSAPDVKA [C270S]
effect of a mutation on the interaction [1]: decreasing interaction | effect of a mutation on the interaction [2]: disrupting interaction

Source: IntAct's records for PubMed 17314099
